Experiment [1] deals with fibrin clots (formed from fibrinogen with bovine thrombin). Kind of experiment: fibrin clot binding at 0.3 mg/mL fibrinogen; bound = total minus free enzyme in the supernatant.
The target is the same in experiment [2]. In words: fibrin clot binding at 0.2 mg/mL fibrinogen; bound = total minus free enzyme in the supernatant.
In experiment [3] the target is full length t-PA (tissue-type plasminogen activator), commercially available t-PA, Actylase (human) (UniProt P00750). Kind of experiment: cell-based or functional assay.
In experiment [4] the target is chimeric truncated and mutant variant of t-PA (truncated-mutant t-PA, KHRR 128-131 substituted with AAAA) (human) (UniProt P00750). Kind of experiment: cell-based or functional assay.
Experiment [5] deals with fibrin clots (formed from fibrinogen with bovine thrombin). In words: fibrin clot binding; ratio against full length t-PA.

As to “full length t-PA (tissue-type plasminogen activator), commercially available t-PA, Actylase (from UniProt P00750 36-562) (enzyme)”, the results for the fibrin affinity (percent of enzyme bound to fibrin clot) in experiment [1] and in experiment [2] were 53% and 44%, respectively.
As for “human rPAI-1 (recombinant plasminogen activator inhibitor-1) (from UniProt P05121 24-402)”, the residual activity after inhibition by rPAI-1 in experiment [3] is 65%; in experiment [4], 85%.
Regarding “chimeric truncated t-PA (GHRP-SYQ-K2S) (from UniProt P00750 211-562) (enzyme)”, the figures for the fibrin affinity (percent of enzyme bound to fibrin clot) in experiment [1] and in experiment [2] were 46% and 38%, respectively. The fibrin affinity relative to full length t-PA (set to 100%) in experiment [5] stood at 86%.

The values are drawn from US20120058537A1.
